Experimental data reported in patent US20210122814A1 (SCHOLAR ROCK, published 2021).

How the values were obtained:
LTBP:proTGFβ1 = LTBP:proTGFβ1 (human); test: cell-based or functional assay
[1] = target: T1, recombinant human LRRC33-proTGFβ1 complex (human, UniProt P01137 30-390; Q86YC3 19-650); test: MSD-SET (solution equilibrium titration), % free antigen against Ab6 concentration
T1 construct: also called hLRRC33-proTGFβ1; hLRRC33
Experimental: (§1) MSD-SET assays were performed to measure affinities of the antibodies at equilibrium. Briefly, each test antibody was diluted 3-5 fold and samples were mixed with biotinylated antigen in a 48-well dish. The SET samples were equilibrated for 20-24 hours at room temperature. Meanwhile, a capture plate was coated with IgG (20 nM) and incubated overnight at 4° C. or 30 minutes at room temperature, followed by a blocking step with 5% BSA. After the capture plate was washed three times, SET samples were added and incubated for 150 seconds. The plate was washed once to remove unbound complexes. 250 ng/ml SA-Sulfotag was added then washed 3 times. 2× Read Buffer was added, and signals from the labeled bound complexes were read with the use of QuickPlex™ SQ 120 instrument.
(§2) As an example, MSD standard plates (MSD) were coated with a 20 nM solution of monoclonal antibody in PBS for 30 min at room temperature or overnight at 4° C. […] After 20-24 hours of equilibration, the antibody-coated plate was blocked with Blocking Buffer A (MSD) for 30 minutes at room temperature and washed with wash buffer (PBS, 0.1% BSA, 0.05% Tween-20) before adding the equilibrated antibody-antigen complexes to the plate for exactly 2.5 minutes. […] After washing with wash buffer, plates were read in MSD read buffer (MSD) using the MESO QuickPlex SQ 120 (MSD). […]

[2] = target: T2, recombinant human GARP-proTGFβ1 complex (human, UniProt P01137 30-390; Q14392 20-627); test: as above
T2 construct: also called hGARP-proTGFβ1; hGARP
Experimental: as §1, §2

T2 sequence (P01137 30-390, chain 1 of 2): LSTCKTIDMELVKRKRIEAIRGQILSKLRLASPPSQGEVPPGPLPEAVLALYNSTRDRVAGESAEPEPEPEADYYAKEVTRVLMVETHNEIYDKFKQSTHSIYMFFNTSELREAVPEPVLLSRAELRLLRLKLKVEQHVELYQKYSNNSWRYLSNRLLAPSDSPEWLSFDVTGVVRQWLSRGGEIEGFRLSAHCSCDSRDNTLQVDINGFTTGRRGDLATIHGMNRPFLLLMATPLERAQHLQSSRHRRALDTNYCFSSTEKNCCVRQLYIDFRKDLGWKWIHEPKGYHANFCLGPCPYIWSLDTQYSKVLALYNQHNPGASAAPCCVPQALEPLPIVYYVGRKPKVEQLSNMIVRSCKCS
T2 sequence (Q14392 20-627, chain 2 of 2): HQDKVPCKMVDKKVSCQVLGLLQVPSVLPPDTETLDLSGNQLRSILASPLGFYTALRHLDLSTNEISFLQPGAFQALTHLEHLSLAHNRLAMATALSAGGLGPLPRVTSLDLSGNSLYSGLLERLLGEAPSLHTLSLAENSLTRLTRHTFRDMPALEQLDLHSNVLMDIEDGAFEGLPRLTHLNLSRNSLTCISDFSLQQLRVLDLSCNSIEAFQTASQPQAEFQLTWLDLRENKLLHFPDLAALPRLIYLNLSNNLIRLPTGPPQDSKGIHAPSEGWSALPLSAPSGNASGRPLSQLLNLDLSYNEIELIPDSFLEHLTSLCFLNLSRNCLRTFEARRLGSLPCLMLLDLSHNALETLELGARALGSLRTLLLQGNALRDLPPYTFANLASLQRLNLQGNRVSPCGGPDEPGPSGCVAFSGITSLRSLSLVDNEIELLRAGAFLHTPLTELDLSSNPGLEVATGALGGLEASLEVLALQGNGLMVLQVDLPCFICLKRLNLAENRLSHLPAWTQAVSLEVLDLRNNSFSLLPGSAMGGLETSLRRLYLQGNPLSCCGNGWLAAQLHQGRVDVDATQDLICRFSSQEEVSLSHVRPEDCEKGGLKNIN
T1 sequence (P01137 30-390 limits assumed, chain 1 of 2): as the sequence (P01137 30-390, chain 1 of 2) above
T1 sequence (Q86YC3 other isoform, or with tags, fused parts or gaps limits assumed, chain 2 of 2): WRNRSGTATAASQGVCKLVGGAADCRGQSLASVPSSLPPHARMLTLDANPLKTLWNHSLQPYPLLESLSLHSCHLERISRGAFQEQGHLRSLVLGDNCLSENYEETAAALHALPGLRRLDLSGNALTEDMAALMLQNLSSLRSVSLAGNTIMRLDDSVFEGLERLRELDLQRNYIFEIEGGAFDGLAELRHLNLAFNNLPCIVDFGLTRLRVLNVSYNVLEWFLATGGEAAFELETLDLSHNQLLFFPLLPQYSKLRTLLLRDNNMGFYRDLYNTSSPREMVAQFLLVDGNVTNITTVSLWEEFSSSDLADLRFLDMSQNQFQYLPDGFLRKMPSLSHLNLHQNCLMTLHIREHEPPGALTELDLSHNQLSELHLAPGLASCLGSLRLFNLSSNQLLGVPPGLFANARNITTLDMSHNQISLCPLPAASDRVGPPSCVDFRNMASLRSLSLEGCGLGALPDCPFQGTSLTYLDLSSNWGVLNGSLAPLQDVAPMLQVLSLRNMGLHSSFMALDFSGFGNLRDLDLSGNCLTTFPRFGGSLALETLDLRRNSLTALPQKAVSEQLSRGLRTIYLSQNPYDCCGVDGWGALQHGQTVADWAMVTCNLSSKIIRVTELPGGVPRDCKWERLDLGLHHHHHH

B1: Ab6 (antibody, V domains shown)
VH: EVQLVESGGGLVQPGGSLRLSCTASGFTFSSFSMDWVRQAPGKGLEWVSYISPSADTIYYADSVKGRFTISRDNAKNTLYLQMNSLRAEDTAVYYCARGVLDYGDMLMPWGQGTLVTVSS
VL: DIQMTQSPSSLSASVGDRVTITCQASQDITNYLNWYQQKPGKAPKLLIYDASNLETGVPSRFSGSGSGTDFTFTISSLQPEDIATYYCQQADNHPPWTFGGGTKVEIKR
IC50 (read off the curve) (LTBP:proTGFβ1): ~1 nM
IC50 (read off the curve) [1]: ~0.06 nM
IC50 (read off the curve) [2]: ~0.03 nM
